Results reported in patent US20020119153A1.

What was measured:
[1] = target: VEGF:sFlk-1 complex (human; mouse) (UniProt P15692); assay: capture ELISA: biotinylated sFlk-1 complexed with VEGF titrated onto wells coated with the antibody; concentration giving 50% maximal binding; extrapolated value
[2] = target: recombinant human VEGF165 (human) (UniProt P15692); assay: blocking ELISA, negative control: 1 nM VEGF bound to wells coated with VEGFR2 (sFlk-1) with 1000 nM control IgG of irrelevant specificity (1000x) present; bound VEGF detected with rabbit anti-VEGF A-20; the number measures VEGF:VEGFR2 binding, not binding of the control IgG to VEGF
Chain of recombinant human VEGF165 (human) (P15692 other isoform, or with tags, fused parts or gaps): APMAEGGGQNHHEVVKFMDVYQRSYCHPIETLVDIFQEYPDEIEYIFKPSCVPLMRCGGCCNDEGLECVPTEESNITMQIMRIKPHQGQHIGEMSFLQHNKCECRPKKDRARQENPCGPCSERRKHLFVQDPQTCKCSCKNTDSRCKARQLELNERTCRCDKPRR

[3] = target: recombinant human VEGF165 (human) (UniProt P15692); assay: blocking ELISA, negative control: 1 nM VEGF bound to wells coated with VEGFR1 (Flt-1/Fc) with 100 nM control IgG of irrelevant specificity (100x) present; bound VEGF detected with rabbit anti-VEGF A-20; the number measures VEGF:VEGFR1 binding, not binding of the control IgG to VEGF
[4] = target: recombinant human VEGF165 (human) (UniProt P15692); assay: blocking ELISA, negative control: 1 nM VEGF bound to wells coated with VEGFR1 (Flt-1/Fc) with 1000 nM control IgG of irrelevant specificity (1000x) present; bound VEGF detected with rabbit anti-VEGF A-20; the number measures VEGF:VEGFR1 binding, not binding of the control IgG to VEGF
[5] = target: recombinant human VEGF165 (human) (UniProt P15692); assay: blocking ELISA, negative control: 1 nM VEGF bound to wells coated with VEGFR2 (sFlk-1) with 100 nM control IgG of irrelevant specificity (100x) present; bound VEGF detected with rabbit anti-VEGF A-20; the number measures VEGF:VEGFR2 binding, not binding of the control IgG to VEGF

Chain of VEGF:sFlk-1 complex (human; mouse) (P15692 other isoform, or with tags, fused parts or gaps limits assumed, chain 1 of 2): as the sequence (P15692 other isoform, or with tags, fused parts or gaps) above
Chain of VEGF:sFlk-1 complex (human; mouse) (P35918 20-762 limits assumed, chain 2 of 2, further chain): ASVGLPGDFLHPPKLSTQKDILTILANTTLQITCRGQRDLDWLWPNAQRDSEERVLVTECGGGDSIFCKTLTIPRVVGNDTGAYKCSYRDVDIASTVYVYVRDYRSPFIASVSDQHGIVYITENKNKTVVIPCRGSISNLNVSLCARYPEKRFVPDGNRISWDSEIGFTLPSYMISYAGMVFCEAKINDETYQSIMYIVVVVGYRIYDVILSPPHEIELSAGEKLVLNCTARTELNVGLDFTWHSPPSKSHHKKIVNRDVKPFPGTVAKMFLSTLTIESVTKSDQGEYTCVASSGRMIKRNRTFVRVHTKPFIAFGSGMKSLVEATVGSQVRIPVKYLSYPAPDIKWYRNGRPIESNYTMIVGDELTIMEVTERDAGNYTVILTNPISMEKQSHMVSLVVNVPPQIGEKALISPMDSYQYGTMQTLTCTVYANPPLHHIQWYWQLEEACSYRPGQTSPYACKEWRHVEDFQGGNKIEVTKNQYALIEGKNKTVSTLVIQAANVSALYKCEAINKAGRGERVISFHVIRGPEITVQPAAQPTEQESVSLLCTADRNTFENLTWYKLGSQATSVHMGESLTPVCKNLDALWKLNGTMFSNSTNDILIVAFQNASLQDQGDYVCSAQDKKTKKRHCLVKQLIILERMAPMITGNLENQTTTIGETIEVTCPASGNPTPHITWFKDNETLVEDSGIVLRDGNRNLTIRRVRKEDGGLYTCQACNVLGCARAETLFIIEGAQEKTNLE

EC50 [1]	% of VEGF alone [2]	% of VEGF alone [3]	% of VEGF alone [4]	% of VEGF alone [5]	Substance
600 nM					irrelevant IgM (negative control) (antibody)
500 nM					A4.6.1, mouse anti-human VEGF monoclonal antibody (Genentech)
	93%	98%	92%	96%	control IgG of irrelevant specificity (antibody)
